Source: PMC3665681

Biological target: A3B3 of Thermus thermophilus VoV1 (His-tagged A3B3, expressed without a rotor subunit) (T. thermophilus) (UniProt Q56403)
Chain of UniProt Q56403 (Q56403 whole entry C28S/S232A/T235S/C255A, chain 1 of 2): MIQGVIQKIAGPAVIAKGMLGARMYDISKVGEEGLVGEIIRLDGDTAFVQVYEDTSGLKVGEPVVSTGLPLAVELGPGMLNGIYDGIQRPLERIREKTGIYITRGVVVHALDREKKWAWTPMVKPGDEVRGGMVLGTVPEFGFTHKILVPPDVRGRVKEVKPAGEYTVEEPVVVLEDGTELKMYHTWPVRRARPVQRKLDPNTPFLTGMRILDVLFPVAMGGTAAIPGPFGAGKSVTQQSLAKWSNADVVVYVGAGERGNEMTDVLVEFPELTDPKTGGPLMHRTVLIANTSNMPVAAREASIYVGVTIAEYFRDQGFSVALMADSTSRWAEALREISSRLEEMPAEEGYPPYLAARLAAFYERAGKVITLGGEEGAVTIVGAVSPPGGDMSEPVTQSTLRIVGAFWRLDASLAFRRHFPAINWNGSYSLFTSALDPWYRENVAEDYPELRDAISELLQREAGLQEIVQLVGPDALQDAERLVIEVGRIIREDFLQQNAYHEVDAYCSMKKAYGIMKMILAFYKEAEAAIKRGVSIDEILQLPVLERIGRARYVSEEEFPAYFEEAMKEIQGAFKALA
Chain of UniProt Q56403 (Q56404 whole entry C264S, chain 2 of 2, further chain): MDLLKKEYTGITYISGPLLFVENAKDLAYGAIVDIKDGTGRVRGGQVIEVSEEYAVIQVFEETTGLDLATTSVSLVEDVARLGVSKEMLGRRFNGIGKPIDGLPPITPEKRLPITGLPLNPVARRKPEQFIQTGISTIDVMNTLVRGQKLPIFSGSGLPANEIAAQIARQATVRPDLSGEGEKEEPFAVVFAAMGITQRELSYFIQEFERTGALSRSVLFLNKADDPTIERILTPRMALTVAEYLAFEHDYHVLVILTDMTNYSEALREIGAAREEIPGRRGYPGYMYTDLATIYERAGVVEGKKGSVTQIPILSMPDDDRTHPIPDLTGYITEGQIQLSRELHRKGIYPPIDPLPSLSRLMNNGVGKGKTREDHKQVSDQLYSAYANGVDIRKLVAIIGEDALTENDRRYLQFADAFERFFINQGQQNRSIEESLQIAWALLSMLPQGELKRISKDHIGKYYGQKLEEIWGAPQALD

## FliJ of Salmonella enterica serovar Typhimurium (from UniProt P0A1K1 1-147) (natural protein)
  ATPase turnover rate of A3B3J (A3B3 alone ∼4.0 s^−1); 25°C, 4 mM MgATP: 7 s⁻¹
